Changes are numbered by the printed parent chain. Numbers in names are those of the source.
T1: 6×His-FtsZ (E. coli, UniProt P0A9A6 1-383)
T1 construct: FtsZ of E. coli, full length (FtsZ-FL), with an N-terminal 6×His tag, from pSD119; By the primer His-FtsZ-SstI the chain begins M-HHHHHH and goes on with F2 of FtsZ (FEPMELT...); also called 6×His-tagged FtsZ-FL; source: E. coli JS238 with pSD119, arabinose induced, purified (Ni-NTA); not shown: His6, N-terminal, kept
T1 sequence (looked up): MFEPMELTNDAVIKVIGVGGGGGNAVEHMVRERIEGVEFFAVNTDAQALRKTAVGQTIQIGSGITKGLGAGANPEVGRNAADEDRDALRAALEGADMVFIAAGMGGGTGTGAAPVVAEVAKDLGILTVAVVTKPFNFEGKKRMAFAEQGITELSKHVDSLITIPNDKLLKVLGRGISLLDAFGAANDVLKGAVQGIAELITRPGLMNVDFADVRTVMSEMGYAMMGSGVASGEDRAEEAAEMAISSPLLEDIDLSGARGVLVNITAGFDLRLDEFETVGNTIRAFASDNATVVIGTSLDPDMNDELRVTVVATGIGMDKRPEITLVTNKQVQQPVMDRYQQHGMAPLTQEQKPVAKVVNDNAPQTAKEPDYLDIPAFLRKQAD

T2: 6×His-FtsZ-K190V (E. coli, UniProt P0A9A6 1-383, K190V)
T2 construct: FtsZ, E. coli, His-tagged, with K190V; the construct is not described in the methods; Probably a derivative of pSD119 (N-terminal His6, full length)
T2 sequence (looked up): T1 sequence (looked up) with K190V

B1: FtsZ (natural protein, E. coli, UniProt P0A9A6 1-383, looked up)
chain: T1 sequence (looked up)
notes: FtsZ, E. coli, untagged, from pSEB160; also called FtsZ-WT; WT FtsZ
B2: FtsZ-K190V (natural protein, E. coli, UniProt P0A9A6 1-383, looked up)
chain: T1 sequence (looked up) with K190V
notes: FtsZ, E. coli, untagged, with K190V; pSEB160 derivative
B3: 6×His-FtsZ (natural protein, E. coli, UniProt P0A9A6 1-383, looked up)
chain: T1 sequence (looked up)
notes: FtsZ, E. coli; 6×His-tagged ftsZ amplified from pSEB160 (pSD119); By the printed primer the six His codons follow the start codon and precede Phe2; also called 6×His-tagged FtsZ-FL; source: E. coli JS238 with pSD119, purified (Ni-NTA); not shown: His6, N-terminal, kept
B4: FtsZ-D86N (natural protein, E. coli, UniProt P0A9A6 1-383, looked up)
chain: T1 sequence (looked up) with D86N
notes: FtsZ, E. coli, untagged, with D86N; pSEB160 derivative
B5: 6×His-SlmA (natural protein, E. coli, UniProt P0C093 1-198, looked up)
chain: MAEKQTAKRNRREEILQSLALMLESSDGSQRITTAKLAASVGVSEAALYRHFPSKTRMFDSLIEFIEDSLITRINLILKDEKDTTARLRLIVLLLLGFGERNPGLTRILTGHALMFEQDRLQGRINQLFERIEAQLRQVLREKRMREGEGYTTDETLLASQILAFCEGMLSRFVRSEFKYRPTDDFDARWPLIAAQLQ
notes: SlmA, E. coli; also called SlmA-WT; His tagged SlmA; source: E. coli JS238/pQE80-slmA, purified (Ni-NTA)
B6: SlmA (untagged version) (natural protein, E. coli, UniProt P0C093 1-198, looked up)
chain: B5 chain
notes: SlmA of E. coli; The forward primer slmA-SUMO-F begins at the second codon (GCA, Ala2), so the cleaved protein probably lacks the first methionine; also called SlmA-WT; nucleoid occlusion factor SlmA; source: E. coli BL21 (λDE3)/pLysS with pSUMO-SlmA, purified (Ni-NTA; H-SUMO tag cleaved with Ulp1, tag and protease removed on Ni-NTA); not shown: His-SUMO (H-SUMO), N-terminal, cleaved
B7: untagged SlmA (natural protein, E. coli, UniProt P0C093 1-198, looked up)
chain: B5 chain
notes: SlmA, E. coli; Used with or without SBS DNA on 6×His-FtsZ tips; also called SlmA (untagged version); source: E. coli BL21 (λDE3)/pLysS with pSUMO-SlmA, purified (Ni-NTA; tag cleaved with Ulp1, flow-through collected)
B8: ZipA_(185–328) (domain or fragment)
chain: not shown
notes: amplified from chromosomal DNA; also called C-terminal domain of ZipA; source: expressed from pSD198 (pQE80 derivative)
B9: 6×His-FtsZ360 (domain or fragment, E. coli, UniProt P0A9A6 1-360, looked up)
chain: MFEPMELTNDAVIKVIGVGGGGGNAVEHMVRERIEGVEFFAVNTDAQALRKTAVGQTIQIGSGITKGLGAGANPEVGRNAADEDRDALRAALEGADMVFIAAGMGGGTGTGAAPVVAEVAKDLGILTVAVVTKPFNFEGKKRMAFAEQGITELSKHVDSLITIPNDKLLKVLGRGISLLDAFGAANDVLKGAVQGIAELITRPGLMNVDFADVRTVMSEMGYAMMGSGVASGEDRAEEAAEMAISSPLLEDIDLSGARGVLVNITAGFDLRLDEFETVGNTIRAFASDNATVVIGTSLDPDMNDELRVTVVATGIGMDKRPEITLVTNKQVQQPVMDRYQQHGMAPLTQEQKPVAKVVND
notes: FtsZ, E. coli, truncated by two stop codons after codon 360; lacks the conserved C-terminal tail; source: E. coli JS238 with pSD119-Z360, purified (Ni-NTA); not shown: His6, N-terminal, kept

Key:
[1] = molecular target: the molecule itself; test: negative-stain electron microscopy of polymers; FtsZ or variant 2 µM with 1 mM GTP in Pol buffer (50 mM HEPES-NaOH pH 8.0, 200 mM KCl, 10 mM MgCl2), room temperature 5 min, 1% uranyl acetate; self-assembly into filaments
FtsZ-D86N = molecular target: B4; test: BLI; biotinylated SBS17-30mer (50 nM) on streptavidin tips, loaded with 4 µM SlmA or SlmA mutant; FtsZ or variants (4 µM, preincubated with 1 mM GDP) or peptides (up to 320 µM) in solution; 1× Pol buffer, room temperature; details: both partners purified
FtsZ-K190V = molecular target: B2; test: co-sedimentation; stable FtsZ polymers formed with GMPCPP (1 mM); proteins 5 µM, SBS17-30mer DNA 2 µM; Pol buffer (50 mM HEPES-NaOH pH 8.0, 200 mM KCl, 10 mM MgCl2); 80,000 rpm 15 min 25°C; supernatant and pellet by SDS-PAGE; details: both partners purified
6×His-FtsZ [2] = molecular target: T1, 6×His-FtsZ; test: BLI; 6×His-FtsZ (loaded at 1 µM) immobilised on Ni-NTA biosensor; untagged SlmA preincubated with SBS17-30mer DNA in solution; 1× Pol buffer (50 mM HEPES-NaOH pH 8.0, 200 mM KCl, 10 mM MgCl2), room temperature; global fit (GraphPad Prism 5); details: both partners purified
6×His-FtsZ [3] = molecular target: T1, 6×His-FtsZ; test: BLI; 6×His-FtsZ (loaded at 1 µM) immobilised on Ni-NTA biosensor; untagged SlmA preincubated with SBS-14mer DNA in solution; 1× Pol buffer (50 mM HEPES-NaOH pH 8.0, 200 mM KCl, 10 mM MgCl2), room temperature; global fit (GraphPad Prism 5); details: both partners purified
6×His-FtsZ [4] = molecular target: T1, 6×His-FtsZ; test: BLI; 6×His-FtsZ (loaded at 1 µM) immobilised on Ni-NTA biosensor; untagged SlmA preincubated with SBS17-20mer DNA in solution; 1× Pol buffer (50 mM HEPES-NaOH pH 8.0, 200 mM KCl, 10 mM MgCl2), room temperature; global fit (GraphPad Prism 5); details: both partners purified
6×His-FtsZ [5] = molecular target: T1, 6×His-FtsZ; test: BLI; 6×His-FtsZ (loaded at 1 µM) immobilised on Ni-NTA biosensor; untagged SlmA preincubated with SBS-18mer DNA in solution; 1× Pol buffer (50 mM HEPES-NaOH pH 8.0, 200 mM KCl, 10 mM MgCl2), room temperature; global fit (GraphPad Prism 5); details: both partners purified
6×His-FtsZ [6] = molecular target: T1, 6×His-FtsZ; test: BLI; 6×His-FtsZ (loaded at 1 µM) immobilised on Ni-NTA biosensor; untagged SlmA without SBS DNA in solution; 1× Pol buffer (50 mM HEPES-NaOH pH 8.0, 200 mM KCl, 10 mM MgCl2), room temperature; global fit (GraphPad Prism 5); details: both partners purified
6×His-FtsZ [7] = molecular target: B3; test: BLI; 6×His-FtsZ or variant (1 µM) immobilised on Ni-NTA tips; untagged SlmA preincubated with SBS17-30mer DNA in solution; 1× Pol buffer, room temperature; global fitting; details: both partners purified
6×His-FtsZ-K190V = molecular target: T2, 6×His-FtsZ-K190V; test: as above; details: both partners purified
FtsZ = molecular target: B1; test: BLI; competition: SlmA/SBS17-30mer on streptavidin tips; 4 µM FtsZ preincubated with various concentrations of ZipA185-328 (with GDP); details: both partners purified

Binder: B1
binding result [1]: binds

Binder: B2
binding result [1]: binds

Binder: B3
binding result [1]: binds

Binder: B4
binding result [1]: binds

Binder: B5
binding result (FtsZ-D86N): binds
binding result (FtsZ-K190V): binds

Binder: B6
koff (6×His-FtsZ [2]): 0.0155 s⁻¹
kon (6×His-FtsZ [2]): 74000 M⁻¹ s⁻¹
Kd (6×His-FtsZ [3]): 206 nM
koff (6×His-FtsZ [3]): 0.0057 s⁻¹
kon (6×His-FtsZ [3]): 27500 M⁻¹ s⁻¹
Kd (6×His-FtsZ [4]): 789 nM
koff (6×His-FtsZ [4]): 0.0143 s⁻¹
kon (6×His-FtsZ [4]): 18100 M⁻¹ s⁻¹
Kd (6×His-FtsZ [5]): 309 nM
koff (6×His-FtsZ [5]): 0.0067 s⁻¹
kon (6×His-FtsZ [5]): 21600 M⁻¹ s⁻¹
Kd (6×His-FtsZ [6]): 21000 nM
koff (6×His-FtsZ [6]): 0.149 s⁻¹
kon (6×His-FtsZ [6]): 7100 M⁻¹ s⁻¹

Binder: B7
Kd (6×His-FtsZ [7]): 210 nM
binding result (6×His-FtsZ-K190V): binds

Binder: B8
percent decrease of the FtsZ binding signal on SlmA/SBS17-30mer at a 1:1 ratio of FtsZ to ZipA185-328 (FtsZ): ~30%

Binder: B9
binding result [1]: binds
